Experimental data as given in patent US8889126B2, “Methods and compositions for treating neuropathies” (Washington University, priority 2004, dated 2014).

How the values were obtained:
[1] = test system: NAD generated after 1 hour at 37 deg; experiment: relative NMNAT enzymatic activity of affinity purified 6xHis-tagged proteins from HEK293T cells; format: biochemical; details: affinity purified protein, normalized to protein concentration
Procedure: NMNAT protein overexpression, affinity purification and enzymatic assay. HEK293T cells were transfected with an expression plasmid for each enzyme by using calcium phosphate precipitation. Three days later, cells were washed with PBS twice and then suspended in the buffer containing 50 mM Sodium Phosphate (pH8.0), and 300 mM NaCl (buffer A). Cells were then homogenized by SONIFIRE 450 (BRANSON) and supernatant was collected by centrifugation at 10,000 g for 10 min. […] Relative NMNAT enzymatic activity was measured by using affinity purified proteins as described before and subtracted the value obtained from mock transfected cells and normalized by the amount of recombinant protein determined by densitometry.
Next we confirmed enzymatic activity of cytNMNAT1, NMNAT1 and its mutant cytNMNAT1 were purified from the cell lysate expressing either of proteins by using affinity gel. […] We expressed hexa-histidine tagged NMNAT3 or nucNMNAT3 in HEK293T cells and analyzed subcellular localization and its enzymatic activity. […] In these investigations, the amount of NAD generated after 1 hour at 37 deg was converted NADH, quantified and normalized to protein concentration. […] FIG. 7E presents a quantitative analysis of remaining neurite numbers at 12, 24, 48, and 72 hours after axotomy. […]

DRG explant neurons = experiment: in vitro Wallerian degeneration assay: DRG explant cultures, axonal transection by removal of neuronal cell bodies; format: cell-based, mouse; details: lentivirus-infected DRG neurons
Procedure: To identify the mechanism of delayed axonal degeneration mediated by the Wld^s protein, we employed an in-vitro Wallerian degeneration model. Primary DRG explant neurons were infected with lentivirus expressing the appropriate proteins, and axons were injured by either removal of the neuronal cell body (transection) or growth in vincristine (toxic).
Mouse DRG explants from E12.5 embryos were cultured in the presence of 1 nM nerve growth factor. Non-neuronal cells were removed from the cultures by adding 5-fluorouracil to the culture medium. Transection of neurites was performed at 10-20 DIV using an 18-gauge needle to remove the neuronal cell bodies. Incubation with β-nicotinamide adenine dinucleotide (Sigma) or Sirtinol (Calbiochem) was performed using conditions indicated in the text or figures.
Lentiviral expression vectors were generated using HEK293T cells as described above. For confirmation of lentivirus-derived protein expression, HEK293T cells were infected with lentivirus and cells were lysed 3 days after infection. These lysates were analyzed by immunoblot to using anti-His tag monoclonal antibody (Qiagen) to detect expression of the respective hexahistidine-tagged proteins. Lentiviral infection of DRG neurons was performed by incubating ˜10^6-10^7 pfu/ml virus with the DRG explant for 24 h beginning 3-7 days prior to axonal transection. The infected neurons were examined under an inverted fluorescent microscope to insure detectable lentivirus-mediated transgene expression in >95% of neurons.
Quantitative analysis of axonal degeneration was performed as previously described (Zhai, et al., Neuron 39:217-25, 2003). Briefly, the cultures were examined using phase contrast microscopy at the indicated times. Axons with a fragmented, non-refractile appearance were designated as “degenerated.” At each time point, at least 200 singly distinguishable axons were blindly scored from several randomly taken images of each culture. Each condition was tested in triplicate explants in each experiment. Results were obtained from 2-4 independent experiments for each condition. Statistical analysis was performed by Student's T test. For calculations of neurite-covered area, digitally captured images from quadruplicate samples of two independent experiments were analyzed using analysis 3.1 software (Soft Imaging System, Lakewood, Colo.).
Cell culture, in vitro axotomy, and quantification of axonal degeneration. Mouse DRG explants from E12.5 embryos were cultured in the DMEM containing 10% FCS and 1 nM nerve growth factor. Non-neuronal cells were removed from the cultures by adding 5-fluorouracil to the culture media. Transection of neurites was performed at 14-21 DIV using an 18-gauge needle to remove the neuronal cell bodies. Lentiviral expression vectors were generated. Lentiviral infection was performed 3-7 days prior to axonal transection for 24 hr. Quantitative analysis of neurite degeneration was performed.

## NMNAT3: murine nicotinamide mononucleotide adenylyltransferase3
[1]
  enzymatic activity (relative NMNAT activity): comparable enzymatic activity compared with NMNAT1
DRG explant neurons
  axonal degeneration after transection in neurons expressing the construct: same extent of delay in neurite degeneration as well as NMNAT1
